Measurements: article PMC4039371 (Molecular Systems Biology, 2013)

Biological target: T1, GST-Cdc14 (S. cerevisiae, UniProt Q00684 1-551)
T1 sequence (looked up): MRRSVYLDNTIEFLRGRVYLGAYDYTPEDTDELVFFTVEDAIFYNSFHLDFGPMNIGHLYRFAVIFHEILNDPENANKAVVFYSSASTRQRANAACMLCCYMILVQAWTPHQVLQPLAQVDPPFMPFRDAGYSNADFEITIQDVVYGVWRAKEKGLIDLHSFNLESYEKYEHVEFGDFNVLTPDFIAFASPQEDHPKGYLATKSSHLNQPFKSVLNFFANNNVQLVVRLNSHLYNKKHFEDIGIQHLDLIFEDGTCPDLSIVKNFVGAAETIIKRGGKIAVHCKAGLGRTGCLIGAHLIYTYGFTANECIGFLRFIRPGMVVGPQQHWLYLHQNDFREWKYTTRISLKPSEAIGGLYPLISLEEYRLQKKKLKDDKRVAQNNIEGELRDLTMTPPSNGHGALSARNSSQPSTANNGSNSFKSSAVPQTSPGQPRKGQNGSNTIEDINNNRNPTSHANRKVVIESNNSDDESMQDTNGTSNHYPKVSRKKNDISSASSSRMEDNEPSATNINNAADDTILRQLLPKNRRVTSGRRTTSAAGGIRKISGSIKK
Test: pull-down

B1: recombinant Ubc9 protein (enzyme, S. cerevisiae, UniProt P50623 1-157, looked up)
chain: MSSLCLQRLQEERKKWRKDHPFGFYAKPVKKADGSMDLQKWEAGIPGKEGTNWAGGVYPITVEYPNEYPSKPPKVKFPAGFYHPNVYPSGTICLSILNEDQDWRPAITLKQIVLGVQDLLDSPNPNSPAQEPAWRSFSRNKAEYDKKVLLQAKQYSK
binding result: binds
